Assay: label from the status in PepcDB records

Sequence	protein production
MFDQYRKTILAGAVALTCGLTAASTFAAGFQPAQPAGKLGAVVVDPYGNAPLTALVELDSHIISDVKVTVHGKGEKGVPVTYTVGKESLETYDGIPIFGLYQKFANNVTVEYKENGKAMKDDYVVQTSAIVNHYMDNRSISDLQQTKVIKVAPGFEDRLYLVNTHTFTPQGAEFHWHGEKDKNAGILDAGPAGGALPFDIAPYTFVVDTQGEYRWWLDQDTFYNGHDMNINKRGYLMGIRETPRGTFTAVQGQHWYEFDMMGQVLADHKLPRGFLDASHESIETVNGTVLLRVGKRDYRKEDGIHVHTIRDQIIEVDKSGRVVDVWDLTKILDPMRDALLGALDAGAVCVNVDLAHAGQQAKLEPDTPYGDALGVGAGRNWAHVNSIAYDAKDDSIILSSRHQGIVKIGRDKQVKWILAPSKGWNKQLASKLLKPVDDHGKPLTCDENGKCKDTDFDFTYTQHTAWLSSKGTLTVFDNGDGRGLEQPALPTMKYSRFVEYKIDEKKGTVQQVWEYGKERGYDFYSPITSVVEYQKDRDTMFGFGGSINLFDVGKPTVGKLNEIDYKTKEVKVEIDVLSDKPNQTHYRALLVHPTQMFK	failed
MKDNTPASSPERWIIYGANGYTGELIAREAVKRGHHPILAGRSLEKVQSLAAELGLQSLAFSLEDKSSAVQHISGSSLVLNCAGPFSSTAKPMMKACLEAGAHYLDITGEISVFEFAQTLQSQAKEASVVLCSGVGFDVIPTDCIAATLKAALPDATHLSLGFDSRSGFSPGTAKTSVEGLAQGGKVRLNGKITTVPLAYKVHNIDFGDGEKLAMTIPWGDVSTAYYTTGIENIDVFIPGSPNMIKNAKRANWVRPLLGITWVQNLIKSRIERTVKGPNEEQRNQLPTYVWGKASNKLGQSKTARVQTANGYSLTVTGSLAIVEHLLHTKPEAGVYTPSKLMGSNFVSQLPGSSGITIEE	failed
MLADELTIGPIRAVPMDITPKYVGIASGLMNAGSAVADIISPIAFGIIIDKTGNWSLPFYGSVALLVIGIFLTFFMRPDKSL	failed
MIRYLALLALLAAPWVQAADALHDDLPLKYLEQAPAEPRNQPLVIFLHGYGSNEADLFGLRQRLPASYTYVSVRAPQTLEEGSYQWFHRKGQGPYDGVTSELASGAELIGQFVRAALAKYQTQPDKVVLVGFSQGAVMAYEVGLRHPQSVRGIAALSGKILPVLAAQVKNNPSLQRLGIFIGHGTLDQRLPYSDAVDAQRLLQGLSLQPQFHAYPGLGHSISEAEIDDLKGWLQGLNP	failed
MNNTIPRWRGFNLLEAFSIKSTGNFKEEDFLWMAQWDFNFVRIPMCHLLWSDRGNPFIIREDFFEKIDRVIFWGEKYGIHICISLHRAPGYSVNKEVEEKTNLWKDETAQEAFIHHWSFIARRYKGISSTHLSFNLINEPPFPDPQIMSVEDHNSLIKRTITEIRKIDPERLIIIDGLGYGNIPVDDLTIENTVQSCRGYIPFSVTHYKAEWVDSKDFPVPEWPNGWHFGEYWNREKLLEHYLTWIKLRQKGIEVFCGEMGAYNKTPHDVVLKWLEDLLEIFKTLNIGFALWNFRGPFGILDSERKDVEYEEWYGHKLDRKMLELLRKY	not failed
MATGKISKRSIDALRPNASNQFLWDTDLKGFGAKITPAGAISYVLQFRMGGREASTRRYTIGAHGSPWTPTTARAEAERLLLLIGQGVDPVDADKQRRREAVDLAFANYAERFARSCKGDGWRRLVERAIRLYLTPVLGKKALPAINRTDVVSVFDNMPADQVANRRNVFAVLRRLFRWAVSRGDLDRSPMEGMETPPPVKARERWLSDDELRLIWNAAPECHRCFGPIVRLLIATGQRREEVSGMRWSELSRTDKLWTLPGDRTKNGEPNTIPLNDLAVAELDAAAGGDKWPRKGRVFATSTGAGFTGYAKGKDKLDRLIELAEGEPLPPWRLHDLRRTLATNFQRLGVRFEVTEAVLNHVGGSRSGVAGIYQRHDWKEEKRQALDDWNSHLEQILMRPSPGNRQAASQAAADLDK	failed
MTSCTIIDATDRSIRQTLGETSTLARLIWVDAGLASPPLCSGLARCGRCRVRITEAAPAPHEDDREFFSAEDISAGWRLACRHAPAHGMVVHVPLEHHHHHH	not failed
MAGLAARLVLLAGAAALASGSQGDREPVYRDCVLQCEEQNCSGGALNHFRSRQPIYMSLAGWTCRDDCKYECMWVTVGLYLQEGHKVPQFHGKWPFSRFLFFQEPASAVASFLNGLASLVMLCRYRTFVPASSPMYHTCVAFAWVSLNAWFWSTVFHTRDTDLTEKMDYFCASTVILHSIYLCCVRTVGLQHPAVVSAFRALLLLMLTVHVSYLSLIRFDYGYNLVANVAIGLVNVVWWLAWCLWNQRRLPHVRKCVVVVLLLQGLSLLELLDFPPLFWVLDAHAIWHISTIPVHVLFFSFLEDDSLYLLKESEDKFKLD	failed
MPLVLHHPERQAELGSGLRDGGGAALRPPGRLVKQMDFTEAYADTCSTVGLAAREGNVKVLRKLLKKGRSVDVADNRGWMPIHEAAYHNSVECLQMLINADSSENYIKMKTFEGFCALHLAASQGHWKIVQILLEAGADPNATTLEETTPLFLAVENGQIDVLRLLLQHGANVNGSHSMCGWNSLHQASFQENAEIIKLLLRKGANKECQDDFGITPLFVAAQYGKLESLSILISSGANVNCQALDKATPLFIAAQEGHTKCVELLLSSGADPDLYCNEDSWQLPIHAAAQMGHTKILDLLIPLTNRACDTGLNKVSPVYSAVFGGHEDCLEILLRNGYSPDAQACLVFGFSSPVCMAFQKDCEFFGIVNILLKYGAQINELHLAYCLKYEKFSIFRYFLRKGCSLGPWNHIYEFVNHAIKAQAKYKEWLPHLLVAGFDPLILLCNSWIDSVSIDTLIFTLEFTNWKTLAPAVERMLSARASNAWILQQHIATVPSLTHLCRLEIRSSLKSERLRSDSYISQLPLPRSLHNYLLYEDVLRMYEVPELAAIQDG	failed
MKAALWMAGWLALMVIVAVAGRETLRELSVFQVMELRSVIGFAMLYPLIHKFGGLTAMATARPLAHLSRNLVHYAAQLGWFYALTLISIGQVVSIEFTMPIWIAILAATFLGEHMNVWKITAVVLGLIGVVVIVRPATSSIEPGQLIALGAAVGFGISVTLMKSLTRTESTLAIIFWMLLIQSAAGLVPALWLWQWPSAYVWVWIVIIAFCGTFSHYCMARALTYADATIVVPMDFLRVPLSATAGWLIYGERLDAYTVIGAALILIGNLLNLRGAPRPPAAASIRNSP	failed
MKATLFVREFLLNPRTIGAILPSSDYLAEKMMASVCFEQAKYIIEYGPGTGVFTDKILRYRHPDTVVMIIEHNREFFCILNEKYQDEKNVIIINGSAEHIETYVKEHNIPFVDYIISGLPFASLPLHVSNAILNKARYLLGVKGKFITFQYTQTKVRLFTQFFNQMTVERVYRNLPPAFVFSCYNEKLEHHHHHH	not failed
MSVNDQITHIGKTLSTTASAFLNYQKSNSNTQDVLTNNGPYKNLLSNTVNNASSTSYFYKRTEHGRFVKNASNTFEDIYSKTRRGDVFRNKFTDNKTCFRMLTYISDDLLNEIPTKEGLKSDADGKLLTEGGENENLRKNASKKETSLFQGFKSYLPIAELAIENTERLNYDTNGTSGTVGAKDVMSKTNERDEIHTELPNFQDSFLIPPGVETKKISSSYSPSALKSFSQTLVNSLEFLNIQKNSTLSEIRDIEVEVENLRQKKEKLLGKIANIEQNQLLLEDNLKQIDDRLDFLEEYGLEVIEANSDENAEDDGMSERKALKNDAIRNEGVTTESISSEASNLPPRRRQQLRDDNSLNRLGAFYSKSKKRHRKSFPTFQQLYEPGTKIGSIMSTHDDFLTCLDFDAPFGTLCTAGYLDHTVKIWDLSKQNKIGELAGHLATINCMQINRDYGTLVTGGRDAALKLWNLNLAQQLYQETQNLTSPTNHIDSPCVHTFEAHTDEVTALSLDPSFLVSGSQDRTIRQWDLRSGKCLQTIDLSFANVLTTSTNVDLSKSTLLTQRNERPSIGALQSFDAALATGTKDGVVRLWDLRSGKVIRTLKGHTDAITSLKFDSACLVTGSYDRTVRIWDLRTGLLNKFHAYSAPVLSLDLFQENAAVVVADEPSVQIYDSEKDESWSCVEQGNETSVSTVKYKENYMVEGRENGDVNIWAV	failed
MGTSSDPIQDGSDEQQKRSEIYTYEAPWHIYAMNWSVRRDKKYRLAITSLLEQYPNRVEIVQLDESNGEIRSDPNLSFEHPYPPTKTIFIPDKECQRPDLLATSSDFLRLWRIADDHSRVELKSCLNSNKNSEFCGPLTSFDWNEAEPRRIGTSSTDTTCTIWDIEREAVDTQLIAHDKEVFDIAWGGVGVFASVSADGSVRVFDLRDKEHSTIIYESSEPDTPLVRLGWNKQDPRYMATIIMDSAKVVVLDIRFPALPVVELQRHQASVNAIAWAPHSSCHICTAGDDSQALIWDISSMGQHVEGGLDPILAYTAGAEIEQLQWSSSQPDWVAIAFSTKLQILRV	failed
MSPDLIPHQKSLSPSYLVFCDVDETLIRCKSGPEFLRHYFEFRHGAEGARRTEELLADLYARLARGLPRDEANREYHRAWRRCPVDEVEDRARHWYRERSRAADFYITATVDALRRHRAEGGAVALVSGSFPPLLPLVAEEVGAQYVLGARLERCGRVLTGELLGLPAIGDGKRVLARELLARHPHIDPADCYAYGDHPSDLPMLHMVGHATLVTPDGTHAPVKPAALT	failed
MGNPADQKDSKAKQKTEVFPVTIDDASNQDVTIKKEPKKIVSLMPSNTEITYALGLGDKVVGVTTNDTYPKEVKKVEKVGDMNVNVEKVISLKPDLVLAHESSMSASADAIKQLKDAGITVLTVNDAQSFSEVYKSIEMIGEAGGAEKKADQLVKSMKSDLKDIQEKAKTISKDEEKSVFIEVSPDPDIYTTGKDTFMNEMLNVIHAKNAAADQTGWVQMTDEAIVKLNPDAIVTTDGVKAKAVEKRDGWSEINAVKHHRVYDVDPDLVTRSGPRLIEGVEELAESIYPDTFKE	failed
LKASGVQAQMAKQQEQDPTNLYISNLPLSMDEQELENMLKPFGQVISTRILRDSSGTSRGVGFARMESTEKCEAVIGHFNGKFIKTPPGVSAPTEPLLCKF	not failed
MNAKIIASLAFTSMFSLSTLLSPAHAEEQEKALNFGIISTESQQNLKPQWTPFLQDMEKKLGVKVNAFFAPDYAGIIQGMRFNKVDIAWYGNLSAMEAVDRANGQVFAQTVAADGSPGYWSVLIVNKDSPINNLNDLLAKRKDLTFGNGDPNSTSGFLVPGYYVFAKNNISASDFKRTVNAGHETNALAVANKQVDVATNNTENLDKLKTSAPEKLKELKVIWKSPLIPGDPIVWRKNLSETTKDKIYDFFMNYGKTPEEKAVLERLGWAPFRASSDLQLVPIRQLALFKEMQGVKSNKGLNEQDKLAKTTEIQAQLDDLDRLNNALSAMSSVSKAVQ	failed
MAAVSPAAAARSAAAAVRDGGEMVRRMTPQDLDRIAQAVAEAEKTTAGEIFCVLTPEVSDYRETPLVWAAASALVLPAGALLAGFRPEMLTRLFGGWSVGHQAAHDGAILSALSTYIVLQLVVFVVAALVVSIPPVRRALTPGALKTARVKRAAMEQFLSHGLHVTRDRTGVLIFAALAEHRVEVIADEGIYKAAPNAVWNEVVADLVAGLKRGKIADGFVAAVARTGGILAAHVPPRGDDRNELSDGLTILPRR	failed
MEASRNRSLVGNNRSPEMNENDGEDVAASAAVEDVEVWDTLSNGFKRAQLYLDQNRDLIQRVNENHMSRIPDNVSRNVGLINEINGNISQVMEIYSDLSLNFAKKFDQRRRTTKDGDTTTTTTGS	failed
VSDRPAGRMPLTVHRNVGRWLSEILHASIRDTGVSSRIEFVRRTLHGWVREEYSETELPNAVYRNLYFPVLDAQPAHAGSGKIETISECDRLKNLVRNVTDTLVENYPQGLESEALLIALDGVKLELARIRKDIEMYGDPRKR	not failed
MEFAPRSVVIEEFIDTLEPMMEAYGLDQVGIFEEHGEGNRYYVGYTINKDDEMITIHMPFVKNERGELALEKQEWTVRKDGREKKGFHSLQEAMEEVIHS	not failed
MTTVIVGAGRIGSSVIELAADANIGVTVIEQEHERAHEFKADENCHVIHDDATERETLHEAEVGNADAIIATTDQDTTNLMVLMLARELGCETLVSVVHAEENIPLFRQLGATIIENPQRLIAEYLFRGTHDPGIQGFMHVGDRDGGAEVFEISVADGAPIIGKTLEQADVAGFLPPSMVVVAVERDGEIIIPRGNTQIETDDLVTVFSKEGIINEVVEPFKPEAKRTGDSDTE	failed

Reference: a protein production outcome set (Wang et al. 2014)
